Publication PMC13253070

Legend:
[1] = biological target: C-terminal domain of FusB (FusB-CTD), wild type (Pectobacterium carotovorum LMG2410); assay: SEC; FusB-CTD alone at varying load (0.2, 0.5, 0.8, 1.2, 2 mg); wild type and variants compared at 0.5 mg loaded; monomer and dimer species
[2] = biological target: C-terminal domain of FusB, D322N variant (Pectobacterium carotovorum LMG2410); assay: ITC; 25 °C, SEC Buffer (20 mM Hepes, 140 mM NaCl, pH 8.0), MicroCal iTC200; typically 1.1 mM injectant, 19 x 2 µl, into 85 µM protein in the cell; FusB-CTD constructs normally in the cell; mean of the titrations listed in Table S2
[3] = biological target: FusB-CTD D322N (Pectobacterium carotovorum LMG2410); assay: ITC; 25 °C, SEC Buffer (20 mM Hepes, 140 mM NaCl, pH 8.0); typically 1.1 mM analyte injected 19 x 2 μl into 85 μM ligand in the cell; FusB-CTD constructs normally in the cell, SpFer and FusANTR-GFP constructs as injectants
[4] = biological target: C-terminal domain of FusB (FusB-CTD), wild type (Pectobacterium carotovorum LMG2410); assay: as above
[5] = biological target: FusB-CTD R241K (Pectobacterium carotovorum LMG2410); assay: as above
[6] = biological target: C-terminal domain of FusB (FusB-CTD), wild type (Pectobacterium carotovorum LMG2410); assay: ITC; competition, sequential titration: SpFer injected into the cell holding FusB-CTD (wild type or D322N) pretitrated with ~2.5 M excess of FusANTR-GFP (wild type or D53A); 25 °C, SEC Buffer; apparent
[7] = biological target: FusB-CTD R241A (Pectobacterium carotovorum LMG2410); assay: ITC; 25 °C, SEC Buffer (20 mM Hepes, 140 mM NaCl, pH 8.0); typically 1.1 mM analyte injected 19 x 2 μl into 85 μM ligand in the cell; FusB-CTD constructs normally in the cell, SpFer and FusANTR-GFP constructs as injectants
[8] = biological target: C-terminal domain of FusB, D322N variant (Pectobacterium carotovorum LMG2410); assay: ITC; competition, apparent: SpFer injected into the cell holding FusB-CTD (wild type or D322N) pretitrated with ~2.5 M excess of FusANTR-GFP (wild type or D53A); 25 °C, SEC Buffer
[9] = biological target: C-terminal domain of FusB, wild type (Pectobacterium carotovorum LMG2410); assay: ITC; 25 °C, SEC Buffer (20 mM Hepes, 140 mM NaCl, pH 8.0), MicroCal iTC200; typically 1.1 mM injectant, 19 x 2 µl, into 85 µM protein in the cell; FusB-CTD constructs normally in the cell; mean of the titrations listed in Table S2
[10] = biological target: C-terminal domain of FusB, R242K variant (Pectobacterium carotovorum LMG2410); assay: as above

“C-terminal domain of FusB (FusB-CTD), wild type (domain or fragment)” gave a stoichiometry N [1] of 2.

Work on “GFP fusion construct containing the N-terminal region (residues 21-66) of FusA, D53A variant (domain or fragment)” yielded a Kd [2] of 31.8 µM.

“FusANTR-GFP D53A (from UniProt C6DG80 21-66) (domain or fragment)” gave a Kd [3] of 31.8 µM and a Kd [4] of 31.6 µM.

“Spinacia oleracea (spinach) ferredoxin 1 (SpFer), wild type, recombinant (from UniProt P00221 51-147) (natural protein)” was tested, and the Kd [5] was 25.5 µM, the Kd [3] was 7.4 µM and the apparent KD with ~2.5 M excess of FusANTR-GFP [6] was 22.3 µM.

With “GFP fusion construct containing the N-terminal region (residues 21-66) of FusA (FusANTR-GFP), wild type (from UniProt C6DG80 21-66) (domain or fragment)” the Kd [7] was 38.8 µM, the Kd [5] was 25.3 µM and the Kd [3] was 9.4 µM.

In the case of “Spinacia oleracea (spinach) ferredoxin 1, recombinant, tag-free (from UniProt P00221 51-147) (natural protein)”, the Kd [8] is reported as 17.7 µM and the Kd [9] is reported as 7.8 µM.

Work on SpFer F64Y (natural protein) yielded a Kd [4] of 30.7 µM.

“SpFer E93A/E94A (from UniProt P00221 51-147) (natural protein)” showed a Kd [4] of 31.3 µM.

For “Spinacia oleracea (spinach) ferredoxin 1 with a C-terminal 6His-tag (from UniProt P00221 51-147) (natural protein)”, the Kd [9] was 18.1 µM.

Substance “GFP fusion construct containing the N-terminal region (residues 21-66) of FusA (domain or fragment)” has a Kd [9] of 31.2 µM, a stoichiometry N [9] of less than 0.2 and a Kd [10] of 33 µM. For the same substance, the stoichiometry N [10] was less than 0.2.
